Measurements from the nanobody polyreactivity screen of Harvey et al. (2022).

Experiment: yeast display, Sf9 membrane polyspecificity reagent, FACS + sequencing; frameworks hold sequencing errors
In short: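 Using colony PCR, genes from sorted yeast display clones were amplified, then sequenced on MiSeq at 2 × 250 and filtered by CDR length. The clones had been stained with 10% biotinylated, detergent-solubilized Sf9 membrane reagent for 1 hour at 4 °C and sorted by FACS into low and high (top ~1%) gates on anti-HA and streptavidin fluorescence. Polyreactivity labels come from the gate of origin.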

Sequence | polyreactivity (PSR sort gate)
QVQLVESGGGLVQAGGSLRLSCAASGFIFQRYAMGWYRPAPGKERELVAAISWSGGSTSYADSVKGRFTISRDNAKNPVYLQMYSLKPVDTAVYYCAARRPVYRKYGDRGRWYNYWGQGTQVTVSS | high polyreactivity
QVQLVESGGGLVQAGGSLRLSCAASGFIFQRYAMGWYRQAPGKERELVAAISWSGGITYYADSVKGRFTISRDNAKNTVYLQMHSLKPEDTAVYYCAAGLAVGDYYWGQGTQVTVSS | high polyreactivity
QVQLVESGGGLVQAGGSLRLSCAASGFIFQSYAMGWYRQAPGKERELVAAISASGGRTYYADSVKGRFTISRDNAKNTVYLQMNSLKPEDNAVYYCNARPAGRGYNYWGQGTQVTVSS | high polyreactivity
QVQLVESGGGLVQAGGSLRLSCAASGFIFQTNHMGWYRQAPGKERELVAAISSGDSTYYADSVKGRFTISRDNAKNTVYLQMNSLIPEDTAVYYCAADVLGTTTVGGFNYWGQGTQVTVSS | low polyreactivity
QVQLVESGGGLVQAGGSLRLSCAASGFIFQYYAMGWFRQARGKERELVAAIRSGGSTYYADSVKGRFTISRDNAKNTFYLQLNSLKPEDTAVYFCGAKYRVFYGFDYWGQGTQVTVSS | high polyreactivity
QVQLVESGGGLVQAGGSLRLSCAASGFIFQYYAMGWYRQAPGKERELVAVIRSGGSTYYADSVKGRFTISRDNAKNTVYLQMNSLKPEDTAVYYCARPSRGPPRGYYWGHGTQVTVSS | high polyreactivity
QVQLVESGGGLVQAGGSLRLSCAASGFIFRDNAMGWYRQAPGKERELVAAISERGGRTYYADSVKGRFTISRDNEKNTVYLQMISLKPEDTAVYYCAAEDIANFYYWGQGTQVTVSS | high polyreactivity
QVQLVESGGGLVQAGGSLRLSCAASGFIFRDNAMGWYRQAPGKERELVASIRSSGGRTYYADSVKGRFTISRDNAKNTVYLQMNSLKPEDTAVYYCARRWYPVTPYARMYYWGQGTQVTVSS | low polyreactivity
QVQLVESGGGLVQAGGSLRLSCAASGFIFRGNAMGWYRQAPGKERELVAAISVRGGRTYYADSVKGRFTISRDNAKNTVYLQMNSLKPEDTAVYYCAADLYNRGRGSSQSYRTGYDYWGQGTQVTVSS | high polyreactivity
QVQLVESGGGLVQAGGSLRLSCAASGFIFRGYAMGWYRQAPGKERELVAAITSSGGDTYYADSVKGRFTISRDNAKNTVYLQMNSLKPEDTAVYYCAKRARRIGDVNMGSWGQGTQVTVSS | low polyreactivity
QVQLVESGGGLVQAGGSLRLSCAASGFIFRGYGMGWYRQAPGKERELVASITTGGRTNYADSVKGRFTISRDNAKNTVYVQMNSLKPEDTAVYYCAATYYLRLRRPYWQGFNYWGQGTQVTVSS | high polyreactivity
QVQLVESGGGLVQAGGSLRLSCAASGFIFRGYTMGWYRQAPGKERELVAAITTTSSTYYADSVKGRFTISRDNAKNTVYLQMNSLKPEDTAVYYCAALFYRYGYLYNYWGQGTQVTVSS | high polyreactivity
QVQLVESGGGLVQAGGSLRLSCAASGFIFRHYAMGWYRQAPGKARELVAVINWSGSSTYYADSVKGRFTISRDNAKNTVYLQMNSLKPEDTAVYYCAVRSLRVDKYGYWGQGTQVTVSS | high polyreactivity
QVQLVESGGGLVQAGGSLRLSCAASGFIFRHYTMGWYRQAPGKERELVAAISSGGSTYYADSVKGRFTISRDNEKNTVYLQMNSLKPEDTAVYYCAARSRIYGLLFYYWGLGTQVTVSS | high polyreactivity
QVQLVESGGGLVQAGGSLRLSCAASGFIFRKYAMGWYRHAPGKETELVAAITRNGGRTYYADSVKGRFTISRDNAKYTVYLQMNSLKPEDTAVFYCNRRGQYTFWPIHEYWGQGTQVTVSS | high polyreactivity
QVQLVESGGGLVQAGGSLRLSCAASGFIFRLYAMGWYRQAPGKERELVAAISSSGGRTTYADSVKGRFTISRDNAKNTVYLQMNSLKPEDTAVYYCNADLWPGNHDGYWGQGTQVTVSS | low polyreactivity
QVQLVESGGGLVQAGGSLRLSCAASGFIFRNYALGWYRQAPGTERELVAAITGRGTSTYYADSVKGRFTISRDNAKNTVYLQMNSLKPEDTAVYYCAARSLALVYRKYDYWGQGTQVTVSS | high polyreactivity
QVQLVESGGGLVQAGGSLRLSCAASGFIFRNYAMGWYRQAPGKERELVASISRGTSTNYADSVKGRFTISRDNAKNTVDLQMNSLKPEDTAVYYCAVGRYPYGSARYGFDYWGQGTQVSVSS | high polyreactivity
QVQLVESGGGLVQAGGSLRLSCAASGFIFRNYAMGWYRQAPGKERELVAVISQRGGSTYYADSVKGRFTSSRDNAKNTVYVQMNSLKPEDTAVYYGAKRKDYNRRGYDYWGQGTQVTVSS | high polyreactivity
QVQLVESGGGLVQAGGSLRLSCAASGFIFRNYVMGWKRPAPGKERELVADITFSGGGTYYADSVKGRFTISRDNAKNTVYLLMNSLIPEDTAVYYCAVYWNWQYDYCGQGTQVTVSS | high polyreactivity
QVQLVESGGGLVQAGGSLRLSCAASGFIFRPYAMGWYRQAPGKERELVAAISYGDGITYYADSVKGRFTISRDNAKNTVYLQMNSLKPEDTAVYDCAVDSHPEEYDYWGQGTQVTVSS | low polyreactivity

Sequence | polyreactivity (PSR sort gate)
QVQLVESGGGLVQAGGSLRLSCAASGFIFRPYAMGWYRQAPGKERELVATISYRGGSTDYADSVKGRFTISRDNAKNTVYLQMNSLKPEDTAVYYCNAGYNRGYYYPVFAFFPYEYWGQGTQVTVSS | low polyreactivity
QVQLVESGGGLVQAGGSLRLSCAASGFIFRQNAMGWYRQAPGKEWELVARITWNGGRTYYADSVKGRFTISRDNAKNTVYLQMHSLKPEDTAVYYCNAVYWGYGKYDYWGQGTQVTVSS | high polyreactivity
QVQLVESGGGLVQAGGSLRLSCAASGFIFRRNAMGWYRQAPGKERELVATIRASGGRTYYADSVKGRFTISRDNAKNTVYLQMNSLKPEDTAVYYCNKRGGYYGSPNYDYWGQGTQVTVSS | high polyreactivity
QVQLVESGGGLVQAGGSLRLSCAASGFIFRRYAMGWYRQAPGKERELVAAINYSGTSTYYADSVKGRFTISRDNAKNTVYLQMNSLKPEDTAVYYCNARVGYPPYDYWGQGTQVTVSS | low polyreactivity
QVQLVESGGGLVQAGGSLRLSCAASGFIFRRYAMGWYRQAPGKERELVAAITWNGGTTYYADSVKGRFTISRDYAKNTVYLQMNRLKPEDTAVYYCAAASRHTGSYRFYYWGQGTQVTVSS | high polyreactivity
QVQLVESGGGLVQAGGSLRLSCAASGFIFRRYAMGWYRQAPGKERELVARISTIGGNTFYADSVKGRFTISRDTAKNTVYLQMNSLKPEDTAVYYCATTGGPSWRKYYSWGQGTQVTVSS | high polyreactivity
QVQLVESGGGLVQAGGSLRLSCAASGFIFRRYAMVWYRQAPGKERELVAAISTGGSTYYADSVKGRFTISRDNAKNTVYLQMNSLKPDDTAVFYCNVKRRTYGQYRMYYWGQGTQVTVSS | low polyreactivity
QVQLVESGGGLVQAGGSLRLSCAASGFIFRRYTMGWYRQAPGKERELVAAISWTGGSTYYADSVKGRFTISRDNAKNTVYLQINRLKPEDTAVYYCNAVLYTPVYDGFDSWGQGTQVTVSS | high polyreactivity
QVQLVESGGGLVQAGGSLRLSCAASGFIFRRYVMGWTRQAPGKERELVAAISNGGGRTYYADSVKGRFTISRDNAKNTVYLQMNSLKPEDTAVYYCAAYPRGPLAPDYDYWGQGTQVTVSS | high polyreactivity
QVQLVESGGGLVQAGGSLRLSCAASGFIFRSYVMGWYRQSPGKERELVAAISKSGGSTYYADSVKGRFTISRDNAKTTVYLQMNSLKPEDTAVYYCAAGTTRTGYRTRYDYWGQGTQVTVSS | high polyreactivity
QVQLVESGGGLVQAGGSLRLSCAASGFIFRVYAMGWYRQAPGKERELVAAITRAGNTYYADSVKGRFTISRDNAMNTVYLQMNSLKPEDTAVYYCNKYHYWASPMNYWGQGTQVTVSS | high polyreactivity
QVQLVESGGGLVQAGGSLRLSCAASGFIFRWNAMGWYRQAPGKERELVAAITSGGGTNYADSVKGRFTISRDNAKNTVYLQMNSLKPEDTAVYYCNASYRRYSNYYKYGYWGQGTQVTVSS | high polyreactivity
QVQLVESGGGLVQAGGSLRLSCAASGFIFRWYAMGWYRQAPGKERELVAAITSGGSTYYADSVKGRFTISRDNAKNTVYLQMNSLKPEDTAVYYCNTYPGSRHWWYDYWGQGTQVTVSS | high polyreactivity
QVQLVESGGGLVQAGGSLRLSCAASGFIFRYNAMGWYRQAPGKERELVAAISSSGTTNYADSVKGRFTISRDNAKNTVYLQMNSLKPEDTAVYYCAADRRDRSPYYYWGQGTQVTVSS | high polyreactivity
QVQLVESGGGLVQAGGSLRLSCAASGFIFRYNPMGRYRHAPGKEREFVAAIDSGGSTYYADSVKGRFTISRDNAKNTVYLQMNSLKPEDTAVYYCNAVHEASYAGVDYWGQGTQVTVSS | low polyreactivity
QVQLVESGGGLVQAGGSLRLSCAASGFIFRYNPMGWYRQAPGKERELVAVITSGGRTYYADSVKGRFTISRDNAKNTVYLQMNSLKPEDTAVYYCNGDSRHRRNYDYWGQGSQVTVSS | high polyreactivity
QVQLVESGGGLVQAGGSLRLSCAASGFIFRYNTMGWYRQAPGKQRELVATITSGGSTYYADSVKGRFTISRDNAKNTFYLQMNSLKPEDTAVYYFAKVRDVLWRFNYWGQGTQVTVSS | high polyreactivity
QVQLVESGGGLVQAGGSLRLSCAASGFIFRYYAMGGYRQAPGKERELVAAISWSGVSTNYADSVKGRFTISRDNAKNTVYLQMNSLTPVDTAVYSCAADGTVRSLGRYYHWGQGTQVTVSS | low polyreactivity
QVQLVESGGGLVQAGGSLRLSCAASGFIFRYYAMGWSRQAPGKERELVAAISTGGSTHYADSVKGRFTISRDNAKNTVYLQMNSLKPEDTAVYYCAAPRYFRVRYGYWGQGTQVTVSS | high polyreactivity
QVQLVESGGGLVQAGGSLRLSCAASGFIFRYYAMGWYRQAPGKEREFVAAISSSGGSTYYADSVKGRFTISRDNAKNTVYLQMNSLKPEDTAVYYCAARSRQDNFYRSYNSWGQGTQVTVSS | high polyreactivity
